Measured values published in patent US20170014524A1 (CALIFORNIA INSTITUTE FOR BIOMEDICAL RESEARCH, published 2017).

B1: anti-CXCR4 IgG antibody HLCX (antibody, V domains shown)
VH: QVQLVESGGGLVQPGGSLRLSCAASGFNIKDTYIHWVRQAPGKGLEWVARIYPTNGYTRYADSVKGRFTISADTSKNTAYLQMNSLRAEDTAVYYCSRETKKYQSYRKCRGGRRWCYQKSYTYNYEDYWGQGTLVTVSS
VL: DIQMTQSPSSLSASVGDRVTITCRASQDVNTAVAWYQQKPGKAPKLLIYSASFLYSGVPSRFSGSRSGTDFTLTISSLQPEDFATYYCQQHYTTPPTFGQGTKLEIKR
B2: anti-CXCR4-ValCit-MMAE conjugate (antibody, human IgG1, kappa, V domains shown)
VH: B1 VH
VL: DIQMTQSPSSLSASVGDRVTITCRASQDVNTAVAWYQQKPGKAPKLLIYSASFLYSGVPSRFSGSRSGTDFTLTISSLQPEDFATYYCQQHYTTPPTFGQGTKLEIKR
modifications: auristatin on a Val-Cit linker coupled by NHS ester to surface-exposed lysine residues, non-specific; estimated DAR ~2-3
B3: anti-CXCR4-NC-MMAE conjugate (antibody, human IgG1, kappa, V domains shown)
VH: B1 VH
VL: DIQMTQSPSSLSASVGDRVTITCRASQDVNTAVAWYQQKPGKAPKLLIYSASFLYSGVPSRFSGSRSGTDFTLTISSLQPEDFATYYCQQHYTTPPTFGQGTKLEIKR
modifications: MMAE on a non-cleavable linker coupled by NHS ester to surface-exposed lysine residues, non-specific; estimated DAR ~2-3

Target: CXCR4 (C-X-C chemokine receptor type 4) (UniProt P61073 1-352, limits assumed)
Test: cell-based or functional assay

CXCR4 (C-X-C chemokine receptor type 4), sequence (P61073 whole entry): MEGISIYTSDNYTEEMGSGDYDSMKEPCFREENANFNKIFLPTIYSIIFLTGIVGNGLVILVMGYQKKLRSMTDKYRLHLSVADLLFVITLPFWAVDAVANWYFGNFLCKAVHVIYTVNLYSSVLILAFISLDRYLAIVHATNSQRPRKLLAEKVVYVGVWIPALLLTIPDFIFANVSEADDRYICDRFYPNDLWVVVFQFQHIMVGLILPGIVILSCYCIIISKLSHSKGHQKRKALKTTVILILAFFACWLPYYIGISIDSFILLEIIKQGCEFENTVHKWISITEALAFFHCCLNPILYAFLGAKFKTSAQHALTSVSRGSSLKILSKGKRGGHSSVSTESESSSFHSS

| Binder | IC50 (nM), cytotoxicity, Ramos (CXCR4+) cells, CellTiter-Glo, 4 days [nM] | IC50 (nM), cytotoxicity, Jurkat (CXCR4+) cells, CellTiter-Glo, 4 days [nM] |
| --- | --- | --- |
| B1 | 89.4 | – |
| B2 | 2 | 9.2 |
| B3 | 0.89 | 4.6 |
